Assay [1] has as its target Plasmodium vivax Duffy-Binding Protein region II (RII-PvDBP), amino acids 211-525 (Plasmodium vivax) (UniProt P22290). The assay is described as follows: AUC.
Assay [2] has as its target Plasmodium vivax Duffy-Binding Protein region II (RII-PvDBP), amino acids 211-525 (Plasmodium vivax, UniProt P22290 211-525). The assay is described as follows: ITC. Background: Isothermal titration calorimetry measures the heat released or taken up as one component is titrated into another.

Chain of Plasmodium vivax Duffy-Binding Protein region II (RII-PvDBP), amino acids 211-525 (P22290 211-525): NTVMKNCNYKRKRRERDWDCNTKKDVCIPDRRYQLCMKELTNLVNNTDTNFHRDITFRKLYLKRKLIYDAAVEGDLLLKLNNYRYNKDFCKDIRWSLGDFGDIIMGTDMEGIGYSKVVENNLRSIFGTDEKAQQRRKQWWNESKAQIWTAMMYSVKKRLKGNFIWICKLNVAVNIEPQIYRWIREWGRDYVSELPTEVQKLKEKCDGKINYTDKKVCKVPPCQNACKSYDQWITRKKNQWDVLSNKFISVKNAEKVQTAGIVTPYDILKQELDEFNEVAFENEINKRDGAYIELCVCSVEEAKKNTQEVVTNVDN

As a reminder, the stoichiometry N is a count of units in the complex or per binding partner. Turning to “Plasmodium vivax Duffy-Binding Protein region II (RII-PvDBP), amino acids 211-525 (from UniProt P22290 211-525) (domain or fragment)”, the stoichiometry N in assay [1] was 2.

B1: DARC1-60 (N-terminal 60 amino acids of Duffy Antigen/Receptor for Chemokines) with C4A, C51A and C54A, unsulfated (domain or fragment, UniProt Q16570 1-60, looked up)
chain: MGNALHRAELSPSTENSSQLDFEDVWNSSYGVNDSFPDGDYGANLEAAAPAHSANLLDDS
On to B1, for which, in assay [2], the “stoichiometry N” value was determined as 1.

The values above are taken from PMC3150435 (Nature structural & molecular biology, 2011).
